# Reference: patent US20220106391A1 (ZOETIS SERVICES, published 2022)
# Residue numbers refer to the chain shown, from its start.
# T1: canine beta-NGF (cNGF) (canine, UniProt Q29074 110-229 (pig entry))
# T1 construct: also called canine NGF; can NGF
# T1 chain: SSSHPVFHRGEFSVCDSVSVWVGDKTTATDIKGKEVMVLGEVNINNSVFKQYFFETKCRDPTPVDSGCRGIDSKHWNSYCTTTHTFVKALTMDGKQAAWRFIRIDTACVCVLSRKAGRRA
# B1: 01B12 Chimera (antibody, V domains shown)
# VH: QVQLKESGPGLVAPSQSLSITCTVSGFSLTGYGVNWVRQPPGKGLEWLGMIWGDGSTDYNSALKSRLSISKDNSKSQVFLKMNSLQTDDTARYYCARDGYYYGTTWYFDVWGAGTTVTV
# VL: DIQMTQTTSSLSASLGDRVTISCRASQDISNYLNWYQQKPDGTIKLLIYYTSRLHSGVPSRFSGSGSGTDYSLTISNLEQEDIATYFCQQGSTLPRTFGGGT
# notes: Mouse variable domains on canine IgG constant regions; 184 and 160; also called Chim-01B12
# B2: H3AQC23L5A (antibody, V domains shown)
# VH: EVQLVESGGDLARPGGSLKLSCVVSGFTLTQYGINWVRQAPGKGLQWVTVIWATGATDYNSALKSRFTVSRDNAMNTVYLQMNSLRVEDTAVYYCARDGWWYATSWYFDVWGQGTLVTVSS
# VL: DIVMTQTPLSLSVSPGEPASISCKASQDINHYLNWFRQKPDGTVKLLIYYTSSLHSGVPSRFSGSGSGTDFTLRISRVEADDAGVYYCQQGDHFPRTFGQGT
# notes: Caninized IgG
# B3: H3A02B4VL1 (antibody, V domains shown)
# VH: B2 VH
# VL: EIVMTQSPASLSLSQEEKVTITCRASQDISNYLNWYQQKPGQAPKLLIYYTSRLHSGVPSRFSGSGSGTDFSFTISSLEPEDVAVYYCQQGNMFPYTFGGGT
# notes: Caninized IgG
# B4: H3AQC2301B12LC (antibody, V domains shown)
# VH: B2 VH
# VL: B2 VL with K24R, N30S, H31N, S53R, D92S, H93T, F94L
# notes: Caninized IgG, light chain QC2301B12VK
# B5: H3A02B4L1AL1 (antibody, V domains shown)
# VH: B2 VH
# VL: B3 VL with R24K, S30N, N31H
# notes: Caninized IgG
# B6: H3AQC2301B12L5AL2 (antibody, V domains shown)
# VH: B2 VH
# VL: B2 VL with K24R, N30S, H31N, D92S, H93T, F94L
# notes: Caninized IgG
# B7: H3AQC2301B12L2AL1 (antibody, V domains shown)
# VH: B2 VH
# VL: B2 VL with D28S, S53R, D92S, H93T, F94L
# notes: Caninized IgG
# B8: H3AQC2301B12L1AL1 (antibody, V domains shown)
# VH: B2 VH
# VL: B2 VL with D28S, S53R, D92S, H93T, F94L
# notes: Caninized IgG
# B9: 15H02-02E01 (antibody, IgG1, V domains shown)
# VH: EVQLEQSGPGLVAPSQSLSITCTVSGFSLTGYGVNWVRQPPGKGLEWLGMIWGDGSTDYNSALKSRLSISKDNSKSQVFLKMNSLQTDDTARYYCARDGYYYGTTWYFDVWGAGTTVTVSS
# VL: B1 VL with Q3V, M4L, T7S
# B10: 30E01-02A11 (antibody, IgG1, V domains shown)
# VH: B9 VH with E1Q, Q3K, Q6E
# VL: B1 VL with Q3V, M4L
# B11: 20D11-02E10 (antibody, IgG1, V domains shown)
# VH: B9 VH with Q6E
# VL: DIVITQTPLSLPVSLGDQASISCRSSQSIVHINRHTYLGWYLQKPGQSLKLLIYGVSNRFSGVPDRFSGSGSGTDFTLKISRVEAEDMGVYYCFQGTHVPFTFGSGT
# B12: 02B04-02A08 (antibody, V domains shown)
# VH: EVKLEESGPGLVAPSQSLSITCTVSGFSLTGYGVNWVRQPPGKGLEWLGMIWGDGSTDYNSALKSRLNISKDNSKSQVFLKMDSLQTDDTARYYCARGGYDYDVPFFDYWGQGTTLTVSS
# VL: B1 VL with Q3V, I44V, S92N, T93M, L94F, R96Y, F98L
# B13: 01B12-02B08 (antibody, IgG1, V domains shown)
# VH: B9 VH with Q3K, E5Q, Q6E
# VL: B1 VL with Q3V, T7S
# B14: 26C08-02F06 (antibody, IgG1, V domains shown)
# VH: B12 VH with N68S, D83N, P105S
# VL: B1 VL with Q3V, M4L, I44V, L54F, Q80H, S92N, R96Y
# B15: 31F05-02B03 (antibody, IgG1, V domains shown)
# VH: B9 VH with E5Q
# VL: B1 VL
# B16: 16G01-02F03 (antibody, IgG2a, V domains shown)
# VH: EVQLQESGAELVKPGASVKLSCKASGYTFTNYWMHWVKQRPGQGLEWIGHIDPSDGETHYNQKFKDKATLTVDKSSSTAYMQLTGLTSEDSAVYYCARFLPDYWGQGTSVTVSS
# VL: DIVLTQTPAIMSASPGEKVTMTCRASSSVSSIYLHWYQQKPGSSPKLWIYSTSNLASGVPARFSGSGSGTSYSLTVSSVEAEDAATYYCQLYDNSPLTFGAGT
# B17: H3AQC23L2AL3 (antibody, V domains shown)
# VH: B2 VH
# VL: B2 VL with K24R, D28S, N30S, H31N, Y32N, T51I, L54F, R96Y
# B18: H3AQC23L2AL1 (antibody, V domains shown)
# VH: B2 VH
# VL: B2 VL with D28S, T51I, L54F, G91S, D92H, H93T, F94L, R96Y
# B19: H3AQC2301B12L6AL2 (antibody, V domains shown)
# VH: B2 VH
# VL: B2 VL with K24R, N30S, H31N, T51V, S52T, S56A, D92S, H93T, F94L
# B20: H3AQC23L6A (antibody, V domains shown)
# VH: B2 VH
# VL: B2 VL with T51V, S52T, S56A
# Target: T1, canine beta-NGF (cNGF)
# Assay: SPR (Biacore)
row,Binder,Kd
1,B1,1.18 nM
2,B2,0.089 nM
3,B3,0.16 nM
4,B4,1.13 nM
5,B5,2 nM
6,B6,12.5 nM
7,B7,0.435 nM
8,B8,1.07 nM

# Target: T1, canine beta-NGF (cNGF)
# Assay: cell-based or functional assay
Binder,"Average Max % Inhib. (pERK 1/2, CHO cells expressing human TrkA)","IC50 (pERK 1/2, CHO cells expressing human TrkA)"
B9,88.2%,18.8 nM
B10,72.4%,9.8 nM
B11,78.1%,5.5 nM
B12,82.2%,4 nM
B13,87.1%,4.7 nM
B14,57.4%,7.1 nM
B15,86.2%,4.1 nM
B16,27.7%,

# Target: T1, canine beta-NGF (cNGF)
# Assay: cell-based or functional assay
# Remark: another data set of the same source
row,Binder,IC50 [nM] (TrkA cell based assay)
1,B1,1.02 nM
2,B2,2.32 nM
3,B3,1.4 nM
4,B17,2.57 nM
5,B18,4.4 nM
6,B4,0.8 nM
7,B5,1.56 nM
8,B6,9.7 nM
9,B19,10 nM
10,B20,16.9 nM
11,B7,0.99 nM
12,B8,0.65 nM
